Experiment: yeast display, Sf9 membrane polyspecificity reagent, FACS + sequencing; frameworks hold sequencing errors
Procedure, shortened: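 Using colony PCR, genes from sorted yeast display clones were amplified, then sequenced on MiSeq at 2 × 250 and filtered by CDR length. The clones had been stained with 10% biotinylated, detergent-solubilized Sf9 membrane reagent for 1 hour at 4 °C and sorted by FACS into low and high (top ~1%) gates on anti-HA and streptavidin fluorescence. Polyreactivity labels come from the gate of origin.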

For “QVQLVESGGGLVQAGGSLRLSCAASGSTFGDNAMGSYRQAPGKERELVAAISSGGGSTYYADSVKGRFTISRDNAKNTVYLQMNSLKPEDTAVYYCAADVTLTLYRYILDYWGQGTQVTVSS”, which “polyreactivity (PSR sort gate)” value is on record?
The value was “low polyreactivity”.

With “QVQLVESGGGLVQAGGSLRLSCAASGSTFGDNAMGWYRQAPGKERELVAAISSSGDSTYYADSVKGRFTISRDNAKNTVYLQMNSLKPEDTAVYYCAADRGSTAGSVTYTPGNYWGQGTQVTVSS” as the sequence, how does the “polyreactivity (PSR sort gate)” value read?
Its value is “low polyreactivity”.

For “QVQLVESGGGLVQAGGSLRLSCAASGSTFGDYAMGWYRQAPGKERELVAAISSSGGSTYYADSVKGRFTISRDNAKNTVYLQMNSLKPEDTAVYYCNADRFLYYARTYWYFWFGYWGQGTQVTVSS”, which “polyreactivity (PSR sort gate)” value is on record?
Its value is “low polyreactivity”.

Which “polyreactivity (PSR sort gate)” value does the source give for “QVQLVESGGGLVQAGGSLRLSCAASGSTFGDYDMGWYRQAPGKERELVAAITIGGITTYADSVKGRFTISRDNAKNTVYLQMNSLKPEDTAVYYCAAAERGDWDDYWGQGTQVTVSS” here?
Its value is “low polyreactivity”.

For “QVQLVESGGGLVQAGGSLRLSCAASGSTFGDYTMGWYRQAPGKERELVAAISSGGSTYYADSVKGRFTISRDNAKNTVYLQMNSLKPEDTAVYYCAAYTKRYLYNYWGQGTQVTVSS”, which “polyreactivity (PSR sort gate)” value is on record?
Its value is “high polyreactivity”.

Which “polyreactivity (PSR sort gate)” value does the source give for “QVQLVESGGGLVQAGGSLRLSCAASGSTFGENDRGWSRQEPGKERELVAAITWSGGSTYYADSVKGRFTISRDNAKNTVYLQMNSLKPEDTAVYYCAADRYWIVLYDYWGQGTQVTVSS” here?
Its value is “low polyreactivity”.

Which “polyreactivity (PSR sort gate)” value does the source give for “QVQLVESGGGLVQAGGSLRLSCAASGSTFGEYPMGWYRQAPGKEREFVAAITFSDDSTYYADSVKGRFTISRDNAKNTVYLQMNSLKPEDTAVYYCAAVLSRHYDYWGQGTQVTVSS” here?
The value was “high polyreactivity”.

With “QVQLVESGGGLVQAGGSLRLSCAASGSTFGFYAMGGYRQAPGKERELVAAITSGDITYADSVKGRFTISRDNAKNTVYLQMNSLKPEDTAVYYCATTSYGYWFGYIPEVDYWGQGTQVSVSS” as the sequence, how does the “polyreactivity (PSR sort gate)” value read?
Its value is “low polyreactivity”.

Which “polyreactivity (PSR sort gate)” value does the source give for “QVQLVESGGGLVQAGGSLRLSCAASGSTFGFYAMGWYRPAPGKERELVAAISWSTTSTYYADSVKGRFTISRDNAKNTVYLQMNSLKPEDTAVYYCAAEEWYLWYYYWGQGTQVTVSS” here?
Its value is “high polyreactivity”.

With “QVQLVESGGGLVQAGGSLRLSCAASGSTFGGYAMGWYRQAPGKEWELVAAISWNGDSTYYADSVKGRFTISRDNAKNTVYLQMNSLKPEDTAVYYCAAPYSGPYRSYEYYWGQGTQVTVSS” as the sequence, how does the “polyreactivity (PSR sort gate)” value read?
The value was “low polyreactivity”.

With “QVQLVESGGGLVQAGGSLRLSCAASGSTFGGYVMGWYRQAPGKERELVAAIRRVGRTYYADSVKGRFTISRDNAKNTVYLQMNSLKPEDTAVYYCATSYYLAYRSITPYDYWGQGTQVTVSS” as the sequence, how does the “polyreactivity (PSR sort gate)” value read?
The value was “low polyreactivity”.

For “QVQLVESGGGLVQAGGSLRLSCAASGSTFGGYVMGWYRQAPGKERELVAAISRSGASTYYADSVKGRFTISRDNAKNTVYLQMNSLKPEDTAVYYCAAYQARGMDYWGQGTQVTVSS”, which “polyreactivity (PSR sort gate)” value is on record?
Its value is “high polyreactivity”.

With “QVQLVESGGGLVQAGGSLRLSCAASGSTFGHYAMGWYRQAPGKERELVAVISRSGARTYYADSVKGRFTISRDNAKNTVYLQMNSLKPEDTAVYYCNAGPYGGNPFDYWGQGTQVTVSS” as the sequence, how does the “polyreactivity (PSR sort gate)” value read?
Its value is “high polyreactivity”.

For “QVQLVESGGGLVQAGGSLRLSCAASGSTFGINAMGWYRQAHGKERELVARISSGVRTYYADSVKGRFTISRDNAKNTVYLQMNSLKPEDTAVYYCAAVYYRGVDRAILSYRYYYWGQGTQVTVSS”, which “polyreactivity (PSR sort gate)” value is on record?
The value was “high polyreactivity”.

Which “polyreactivity (PSR sort gate)” value does the source give for “QVQLVESGGGLVQAGGSLRLSCAASGSTFGINAMVWYRQAPGKERELVASITRRGGSTYYADSVKGRFTISRDNAKNTVYLQMNSLKPEDTAVYYCNKTYRYGTPLYDYWGQGTQVTVSS” here?
The value was “high polyreactivity”.

With “QVQLVESGGGLVQAGGSLRLSCAASGSTFGIYAMRWYRQAPGKERELVAAISSRGSTYYADSVKGRFTISRDNAKNTVYLQMNSLKPEDTAVYYCAAKVWARVDGRQFRMVYWGQGTQVTVSS” as the sequence, how does the “polyreactivity (PSR sort gate)” value read?
Its value is “high polyreactivity”.

With “QVQLVESGGGLVQAGGSLRLSCAASGSTFGIYPMAGNRTEPGKERELVAAISSGGSTNYADSVKGRFTISRDNAKNSVYLQMNSLNPEDTAVYYCAVESVYEYGGYVDSAYDYWGQGTQVTVSS” as the sequence, how does the “polyreactivity (PSR sort gate)” value read?
Its value is “low polyreactivity”.

Which “polyreactivity (PSR sort gate)” value does the source give for “QVQLVESGGGLVQAGGSLRLSCAASGSTFGKNAMGWSRQAPGNERELVAGITSGGSTYYADSVKGRFTISRDNAKNTVYLQMNSLKPEDTAVYYCAAVRRWKYDWGQGTQVTVSS” here?
The value was “high polyreactivity”.

For “QVQLVESGGGLVQAGGSLRLSCAASGSTFGKNAMGWYRQAPRKERELVAAISRSGGRTYYADSVKGRFTISRDNAKNTVYLQMNSLKPEDTAVYYCAREWYTAGSGDYWGQGTQVTVSS”, which “polyreactivity (PSR sort gate)” value is on record?
Its value is “low polyreactivity”.

With “QVQLVESGGGLVQAGGSLRLSCAASGSTFGLKAMGWYRQAPGKERELVAAITSGGTYYADSVKGRFTISRDNAKNTVYLQMNSLKPEDTAVYYCAADGTWSIYGGLYYWGQGTQVTVSS” as the sequence, how does the “polyreactivity (PSR sort gate)” value read?
Its value is “low polyreactivity”.

With “QVQLVESGGGLVQAGGSLRLSCAASGSTFGLNPMGWYRQAPGKERELVAAISTSGGSTYYADSVKGRFTISRDNAKNTVYLQMNSLKPEDTAVYYCAAEVVAGYDYSQYYYWGQGTQVTVSS” as the sequence, how does the “polyreactivity (PSR sort gate)” value read?
Its value is “low polyreactivity”.

For “QVQLVESGGGLVQAGGSLRLSCAASGSTFGLYAMGWYRQAPGKEREFVAAISYSGSSTYYADSVKGRFTISRDNAKNTVYLQMNSLKPSDTAVYYCAARRSEHGYTYWGQGSQVTVSS”, which “polyreactivity (PSR sort gate)” value is on record?
The value was “high polyreactivity”.

Which “polyreactivity (PSR sort gate)” value does the source give for “QVQLVESGGGLVQAGGSLRLSCAASGSTFGLYGMGWYRQAPGKERELVAAITYSGGGTYYADSVKGRFTISRDNAKNTVYLQMNSLKPEDTAVYYCAAEYYSSITGWYYYWGQGTLVTVSS” here?
Its value is “low polyreactivity”.

For “QVQLVESGGGLVQAGGSLRLSCAASGSTFGLYVMGWYRQAPGKERELVAAINRICSRTYYADSVKGRFTISRDNAKNTVYLQMNSLKPEDTAVYYCAADYDYTSPGDDYWGQGTQVTVSS”, which “polyreactivity (PSR sort gate)” value is on record?
Its value is “high polyreactivity”.

For “QVQLVESGGGLVQAGGSLRLSCAASGSTFGLYVMGWYRQAPGKERELVATITRSGGSTYADSVKGRFTISRDNAKNTVYLQMNSLKPEDTAVYYCNADYPKPVYYSYWHQEFEYWGQGTQVTVSS”, which “polyreactivity (PSR sort gate)” value is on record?
The value was “low polyreactivity”.

Which “polyreactivity (PSR sort gate)” value does the source give for “QVQLVESGGGLVQAGGSLRLSCAASGSTFGNNAMGWYRQAPGKERELVAAITFRGTSTYADSVKGRFTISRDNAKNTVSLQMNSLKPEDTAVYYCAAVVYFVSYRFYYWGQGTQVTVSS” here?
The value was “high polyreactivity”.

With “QVQLVESGGGLVQAGGSLRLSCAASGSTFGNYAMGWYRQAPGKERELVATISRSGGSTYYADSVKGRFTISRDNAKNTVYLQMNSLKPEDTAVYYCNRRYYTRKPDYNSWGQGTQVTVSS” as the sequence, how does the “polyreactivity (PSR sort gate)” value read?
Its value is “high polyreactivity”.

With “QVQLVESGGGLVQAGGSLRLSCAASGSTFGNYAMGWYRQAPGKERELVAVITSAGSTYYADSVKGRFTISRDNAKNTVYLQMNSLKPEDTAVYYCNTGKHVRYYYWGQGTQVTVSS” as the sequence, how does the “polyreactivity (PSR sort gate)” value read?
The value was “low polyreactivity”.

Which “polyreactivity (PSR sort gate)” value does the source give for “QVQLVESGGGLVQAGGSLRLSCAASGSTFGPYALGWYRQAPGKERELVAAIDKSGGSTYYADSVKGRFTISRDNAKNTVYLQMNSLKPEDTAVYYCAADMLRYFGYYDYDSWGQGTQVTVSS” here?
Its value is “low polyreactivity”.

Which “polyreactivity (PSR sort gate)” value does the source give for “QVQLVESGGGLVQAGGSLRLSCAASGSTFGPYAMGWYRQAPGKERELVAGITWSSASTYYADSVKGRFTISRDNAKNTVYLQMNSLKPEDTAVYYCIADSESTDYDYWGQGTQVTVSS” here?
Its value is “low polyreactivity”.

With “QVQLVESGGGLVQAGGSLRLSCAASGSTFGPYAMGWYRQAPGKERELVATISGSGSSTYYADSVKGRFTISRDNAKNTVYLQMNSLKPEDTAVYYCATDLYFDLRYDYWGQGTQVTVSS” as the sequence, how does the “polyreactivity (PSR sort gate)” value read?
The value was “low polyreactivity”.

Which “polyreactivity (PSR sort gate)” value does the source give for “QVQLVESGGGLVQAGGSLRLSCAASGSTFGPYTMGWYRQAPGKERELVATISSGGSTYYADSVKGRFTISRDNAKNTVYLQMNSLKPEDTAVYYCAARYWSIYDYWGQGTQVTVSS” here?
Its value is “low polyreactivity”.

With “QVQLVESGGGLVQAGGSLRLSCAASGSTFGQYGMGWYRQAPGKERELVAAIRIGGSTNYADSVKGRFTISRDNAKNTVYLQMNSLKPEDTAVYYCNAGGTPTWTHGGYIELDYWGQGTQVTVSS” as the sequence, how does the “polyreactivity (PSR sort gate)” value read?
The value was “low polyreactivity”.

Which “polyreactivity (PSR sort gate)” value does the source give for “QVQLVESGGGLVQAGGSLRLSCAASGSTFGRNAMGWYRQAPGKERELVAAISRSGGSTYYADSVKGRFTISRDNAKNTVYLQMNRLKPEDTAVYYCAAAVSPGGVYGNRYYYWGQGTQVTVSS” here?
The value was “high polyreactivity”.

With “QVQLVESGGGLVQAGGSLRLSCAASGSTFGRNAMGWYRQAPGKERELVAAITASGGTTYYADSVKGRFTISRDNAKNTVFLQMNSLKPEDTSVYYCARAGHFSFKYDYWGQGTQVTVSS” as the sequence, how does the “polyreactivity (PSR sort gate)” value read?
The value was “low polyreactivity”.

For “QVQLVESGGGLVQAGGSLRLSCAASGSTFGRNAMGWYRQAPGKERELVAGITRRGGSTYYADSVKGRFTISRDNAKNTVYLQMNSLKPEDTAVYYCNTRGQSSSGIYDYWGQGTQVTVSS”, which “polyreactivity (PSR sort gate)” value is on record?
The value was “high polyreactivity”.

With “QVQLVESGGGLVQAGGSLRLSCAASGSTFGRNAMGWYRQAPGKERELVATINWNGGRTYYADSVKGRFTISRDNAKNSVYLQMNSLKPEDTAVYYCNATKTGPATVRYYYWGQGTQVTVSS” as the sequence, how does the “polyreactivity (PSR sort gate)” value read?
The value was “high polyreactivity”.

With “QVQLVESGGGLVQAGGSLRLSCAASGSTFGRNTMGWYRPAPGKERELVASITRSSTSTYYADSVKGRFTISRDNAKNTVYLQMNSLKPEDTAVYYCAARALRTDRSPVGRHEYWGQGTQVTVSS” as the sequence, how does the “polyreactivity (PSR sort gate)” value read?
Its value is “low polyreactivity”.

Which “polyreactivity (PSR sort gate)” value does the source give for “QVQLVESGGGLVQAGGSLRLSCAASGSTFGRYALGWYRQAPGKEREFVAAISWSGGSTYYADSVKGRFTISRDNAKNTVYLQMNSLKPEDSAVYYCAASYIYQSSWYHRMYYWGQGTQVTVSS” here?
Its value is “high polyreactivity”.

With “QVQLVESGGGLVQAGGSLRLSCAASGSTFGRYAMGWYREAPGKERELVAGITYGSTYYADSVKGRVTISRDNAKNTVYLPMNSLKPEDTAVYACAADLSYTSVHGYRSETLMDYWGQGTQVTVSS” as the sequence, how does the “polyreactivity (PSR sort gate)” value read?
Its value is “low polyreactivity”.

With “QVQLVESGGGLVQAGGSLRLSCAASGSTFGRYAMGWYRQAPGKERELVAAISRRGGSTYYADSVKGRFTISRDNAKNTVYLQMNSLKPEDTAVYYCATGYPIDLGREFDYWGQGIQVTVSS” as the sequence, how does the “polyreactivity (PSR sort gate)” value read?
The value was “high polyreactivity”.

From the nanobody polyreactivity screen of Harvey et al. (2022)
